Measured values reported in patent publication US8133978 (GlaxoSmithKline, dated 2012).

T1: Human interleukin-18 (recombinant human IL-18) (human, UniProt Q14116 37-193)
T1 construct: also called hIL-18
T1 sequence: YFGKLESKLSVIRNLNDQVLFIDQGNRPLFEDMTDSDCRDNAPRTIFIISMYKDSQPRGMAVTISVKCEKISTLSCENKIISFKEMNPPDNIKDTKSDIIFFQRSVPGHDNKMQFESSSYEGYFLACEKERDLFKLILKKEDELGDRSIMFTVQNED


Assays:
[1] = target: T1, Human interleukin-18 (recombinant human …); experiment: SPR, Biacore 3000, antibody captured on Protein A, 25 C
Procedure: Biacore™ kinetic analysis of the humanised 2C10 antibodies was carried out on a Biacore™ 3000 instrument using Protein A capture of the antibodies in HBS-EP buffer (Biacore™). Briefly, Protein A was immobilised on a CM5 chip by primary amine coupling, using manufacturers recommended protocol, to densities around 2000-4000 resonance units (RU's). Humanised antibody was then passed over the Protein A surface and captured to levels of around 200-500 RU's, after a period of stabilisation, IL-18 (human or Rhesus) was passed over the captured antibody surface at defined concentrations and binding sensorgrams were obtained. […] All curves were double referenced against a buffer injection instead of IL-18 and the data was fitted to the 1:1 binding model using the global fit parameters in BiaEval 4.1. Off-rate ranking experiments were set up using the same Protein A capture method, however, only a single concentration of IL-18 was used (10 nM). Whilst the data was fitted using the same binding model as the kinetic analysis, since only one concentration of analyte was used on the off-rate is reported, this value is useful for ranking rather than giving an exact kinetic measurement and was used as a way of selecting which antibodies would be further investigated. […]

[2] = target: T1, Human interleukin-18 (recombinant human …); experiment: ELISA, human IL-18 captured by 16D10, antibody titrated
Procedure: ELISA with all nine humanised variants was carried out at least 6 times using various batches of purified antibody preparation. FIGS. 4A-4C show representative data from one experiment which generated the EC50 value ranking illustrated in Table 7. Human IL-18 was immobilized on Nunc Maxisorp 96-well plates using 2.5 µg/ml of 16D10 (non-neutralising mouse monoclonal antibody) to capture 5 ng/ml of recombinant human IL-18. Anti-IL-18 humanised antibodies were added at various dilutions. Bound humanised antibodies were detected using anti-human IgG Fc specific peroxidase conjugate (Sigma A0170).

Rhesus IL-18 [3] = target: T2, Rhesus IL-18 (rhesus (rhesus/cynomolgus)); experiment: SPR, Biacore 3000, antibody captured on Protein A, 25 C
T2 construct: also called Rhesus/Cynomolgus IL-18; rhesus/cynomolgus IL-18
Procedure: (§1) Biacore™ kinetic analysis of the humanised 2C10 antibodies was carried out on a Biacore™ 3000 instrument using Protein A capture of the antibodies in HBS-EP buffer (Biacore™). Briefly, Protein A was immobilised on a CM5 chip by primary amine coupling, using manufacturers recommended protocol, to densities around 2000-4000 resonance units (RU's). Humanised antibody was then passed over the Protein A surface and captured to levels of around 200-500 RU's, after a period of stabilisation, IL-18 (human or Rhesus) was passed over the captured antibody surface at defined concentrations and binding sensorgrams were obtained. […] All curves were double referenced against a buffer injection instead of IL-18 and the data was fitted to the 1:1 binding model using the global fit parameters in BiaEval 4.1. Off-rate ranking experiments were set up using the same Protein A capture method, however, only a single concentration of IL-18 was used (10 nM). Whilst the data was fitted using the same binding model as the kinetic analysis, since only one concentration of analyte was used on the off-rate is reported, this value is useful for ranking rather than giving an exact kinetic measurement and was used as a way of selecting which antibodies would be further investigated.
(§2) Based upon these observations selected antibodies were investigated in greater detail for binding to human and Rhesus IL-18 at 37° C. The data shown in Table 4b for human IL-18 is the mean (and standard deviation) of six separate determinations.

[4] = target: T1, Human interleukin-18 (recombinant human …); experiment: SPR, Biacore T100, antibody captured on Protein A, 20 C
Procedure: (§3) The methodology was basically the same as for the method used in Example 4a above; Protein A was immobilised on a CM5 chip at densities of between 2000-6000 RU's by primary amine coupling. Runs were carried out in HBS-EP (Biacore™). The anti-IL-18 antibodies were captured to densities of between 100-500 RUs, human IL-18 was passed over this captured surface at concentrations between 16-0.0625 nM, with 0 nM concentration (i.e., a buffer only injection of captured antibody) used for double referencing. Regeneration after each injection of IL-18 was by mild acidic elution using two injections of 10 mM glycine, pH1.5. […] The binding curves obtained were analysed using the analysis software inherent to the T100 machine using the 1:1 model of binding. Runs were carried out at the temperatures indicated.
(§4) This experiment was carried out using the above method at various temperatures. […] Table 5 details the kinetic values used to create these figures.

[5] = target: T1, Human interleukin-18 (recombinant human …); experiment: SPR, Biacore T100, antibody captured on Protein A, 32 C
Procedure: as §3, §4

[6] = target: T1, Human interleukin-18 (recombinant human …); experiment: SPR, Biacore T100, Protein A capture, 25 C, mean n = 4
Procedure: as §3
(§5) These experiments were carried out as described above. Table 6 details the kinetic parameters obtained. […] H1L2 has a better on-rate (ka) than H1L1.

[7] = target: T1, Human interleukin-18 (recombinant human …); experiment: SPR, Biacore T100, antibody captured on Protein A, 25 C
Procedure: as §3, §4

[8] = target: T1, Human interleukin-18 (recombinant human …); experiment: cell-based or functional assay
[9] = target: T1, Human interleukin-18 (recombinant human …); experiment: SPR, Biacore T100, Protein A capture, 37 C, mean n = 6
Procedure: as §3, §5

[10] = target: T1, Human interleukin-18 (recombinant human …); experiment: SPR, Biacore T100, antibody captured on Protein A, 37 C
Procedure: as §3, §4

[11] = target: T1, Human interleukin-18 (recombinant human …); experiment: ELISA, antibody on plate, human IL-18 captured, detected by 16D10; 37 C, blocking buffer
Procedure: (§6) ELISA was carried out with the three Humanised H1 variants; H1L1, H1L2 and H1L3 to assess binding to human IL-18 at room temperature and at 37° C. in both human serum and in block solution (PBS 0.05% TWEEN with 1% BSA (w/v)). The Humanised antibody variants were immobilised on Nunc Maxisorp 96-well plates at 2.5 µg/ml. Capture of 5 ng/ml of recombinant human IL-18 was carried out either at room temperature or 37° C. in human serum or block solution. Anti-IL-18 mouse monoclonal antibody 16D10 was added. The bound mouse antibody was detected using anti-mouse kappa peroxidase conjugate (Serotec MCA 1291P). Representative EC50 values generated from the study data are illustrated in Table 9.

[12] = target: T1, Human interleukin-18 (recombinant human …); experiment: ELISA, antibody on plate, human IL-18 captured, detected by 16D10; room temperature, in serum
Procedure: as §6

[13] = target: T1, Human interleukin-18 (recombinant human …); experiment: ELISA, antibody on plate, human IL-18 captured, detected by 16D10; 37 C, in serum
Procedure: as §6

[14] = target: T1, Human interleukin-18 (recombinant human …); experiment: ELISA, antibody on plate, human IL-18 captured, detected by 16D10; room temperature, blocking buffer
Procedure: as §6

[15] = target: T1, Human interleukin-18 (recombinant human …); experiment: SPR, Biacore T100, antibody captured on Protein A, 15 C
[16] = target: T1, Human interleukin-18 (recombinant human …); experiment: SPR, Biacore 3000, antibody captured on Protein A, 37 C
Procedure: as §1, §2

Rhesus IL-18 [17] = target: T2, Rhesus IL-18; experiment: as above
Procedure: as §1, §2

Rhesus IL-18 [18] = target: T2, Rhesus IL-18; experiment: Rhesus IL18 binding ELISA, antibody titrated, OD 490 nm

Binder	Kd [1] [pM]	EC50 [2] [µg/mL]	Kd (Rhesus IL-18 [3]) [pM]	other results
H2L2 humanised anti-IL-18 antibody (antibody, human IgG1, kappa, V domains shown, Human IgG1 / kappa) VH: QVQLVQSGAEVKKPGASVKVSCKVSGEISTGYYFHWVRRRPGKGLEWMGRIDPEDDSTKYAERFKDRVTMTEDTSTDTAYMELSSLRSEDTAVYYCTTWRIYRDSSGRPFYVMDAWGQGTLVTVSS VL: DIQMTQSPSSVSASVGDRVTITCLASEDIYTYLTWYQQKPGKAPKLLIYGANKLQDGVPSRFSGSGSGTDYTLTISSLQPEDFATYYCLQGSKFPLTFGQGTKLEIKR	20.1	0.012	104	
H1L1 humanised anti-IL-18 antibody (antibody, human IgG1, kappa, V domains shown, Human IgG1 / kappa) VH: QVQLVQSGAEVKKPGASVKVSCKVSGEISTGYYFHWVRQAPGKGLEWMGRIDPEDDSTKYAERFKDRVTMTEDTSTDTAYMELSSLRSEDTAVYYCTTWRIYRDSSGRPFYVMDAWGQGTLVTVSS VL: DIQMTQSPSSVSASVGDRVTITCLASEDIYTYLTWYQQKPGKAPKLLIYGANKLQDGVPSRFSGSGSGTDFTLTISSLQPEDFATYYCLQGSKFPLTFGQGTKLEIKR	33.2	0.01	380	Kd [4]: 23.7 pM; Kd [5]: 47.2 pM; Kd [6]: 33.1 pM; Kd [7]: 31.1 pM; % change vs 2C10 (IC50, KG-1 bioassay) [8]: 269%; Kd [9]: 94.3 pM; Kd [10]: 53.3 pM; EC50 [11]: 0.00343 µg/mL; EC50 [12]: 0.0102 µg/mL; EC50 [13]: 0.0121 µg/mL; EC50 [14]: 0.00331 µg/mL; Kd [15]: 20.1 pM
H2L1 humanised anti-IL-18 antibody (antibody, human IgG1, kappa, V domains shown, Human IgG1 / kappa) VH: QVQLVQSGAEVKKPGASVKVSCKVSGEISTGYYFHWVRRRPGKGLEWMGRIDPEDDSTKYAERFKDRVTMTEDTSTDTAYMELSSLRSEDTAVYYCTTWRIYRDSSGRPFYVMDAWGQGTLVTVSS VL: DIQMTQSPSSVSASVGDRVTITCLASEDIYTYLTWYQQKPGKAPKLLIYGANKLQDGVPSRFSGSGSGTDFTLTISSLQPEDFATYYCLQGSKFPLTFGQGTKLEIKR	33.5	0.021	627	
H2L3 humanised anti-IL-18 antibody (antibody, human IgG1, kappa, V domains shown, Human IgG1 / kappa) VH: QVQLVQSGAEVKKPGASVKVSCKVSGEISTGYYFHWVRRRPGKGLEWMGRIDPEDDSTKYAERFKDRVTMTEDTSTDTAYMELSSLRSEDTAVYYCTTWRIYRDSSGRPFYVMDAWGQGTLVTVSS VL: DIQMTQSPSSVSASVGDRVTITCLASEDIYTYLTWYQQKPGKAPQLLIYGANKLQDGVPSRFSGSGSGTDYTLTISSLQPEDEGDYYCLQGSKFPLTFGQGTKLEIKR	23.8	0.016		
H3L2 humanised anti-IL-18 antibody (antibody, human IgG1, kappa, V domains shown, Human IgG1 / kappa) VH: QVQLVQSGAEVKKPGASVKVSCKVSGEISTGYYFHFVRRRPGKGLEWMGRIDPEDDSTKYAERFKDRVTMTADTSTDTAYMELSSLRSEDTATYFCTTWRIYRDSSGRPFYVMDAWGQGTLVTVSS VL: DIQMTQSPSSVSASVGDRVTITCLASEDIYTYLTWYQQKPGKAPKLLIYGANKLQDGVPSRFSGSGSGTDYTLTISSLQPEDFATYYCLQGSKFPLTFGQGTKLEIKR	16.5	0.008	59.6	Kd [16]: 105 pM; Kd (Rhesus IL-18 [17]): 64.3 pM
H3L1 humanised anti-IL-18 antibody (antibody, human IgG1, kappa, V domains shown, Human IgG1 / kappa) VH: QVQLVQSGAEVKKPGASVKVSCKVSGEISTGYYFHFVRRRPGKGLEWMGRIDPEDDSTKYAERFKDRVTMTADTSTDTAYMELSSLRSEDTATYFCTTWRIYRDSSGRPFYVMDAWGQGTLVTVSS VL: DIQMTQSPSSVSASVGDRVTITCLASEDIYTYLTWYQQKPGKAPKLLIYGANKLQDGVPSRFSGSGSGTDFTLTISSLQPEDFATYYCLQGSKFPLTFGQGTKLEIKR	19.4	0.013	149	
H3L3 humanised anti-IL-18 antibody (antibody, human IgG1, kappa, V domains shown, Human IgG1 / kappa) VH: QVQLVQSGAEVKKPGASVKVSCKVSGEISTGYYFHFVRRRPGKGLEWMGRIDPEDDSTKYAERFKDRVTMTADTSTDTAYMELSSLRSEDTATYFCTTWRIYRDSSGRPFYVMDAWGQGTLVTVSS VL: DIQMTQSPSSVSASVGDRVTITCLASEDIYTYLTWYQQKPGKAPQLLIYGANKLQDGVPSRFSGSGSGTDYTLTISSLQPEDEGDYYCLQGSKFPLTFGQGTKLEIKR	24.2	0.009		Kd [16]: 110 pM; Kd (Rhesus IL-18 [17]): 75.6 pM; EC50 (read off the curve) (Rhesus IL-18 [18]): ~0.03 µg/mL
